Measurements from patent publication US20100291160A1, “PHARMACEUTICAL SYSTEM FOR TRANS-MEMBRANE DELIVERY” (priority 2009, published 2010).
Where a name gives a salt, the structure may show the parent alone.

B1: Neupogen: a filgrastim (e.g., G-CSF, Neupogen) (protein, UniProt P09919 31-207, looked up)
Granulocyte …: TPLGPASSLPQSFLLKCLEQVRKIQGDGAALQEKLVSECATYKLCHPEELVLLGHSLGIPWAPLSSCPSQALQLAGCLSQLHSGLFLYQGLLQALEGISPELGPTLDTLQLDVADFATTIWQQMEELGMAPALQPTQGAMPAFASAFQRRAGGVLVASHLQSFLEVSYRVLRHLAQP
modifications: filgrastim

Assays:
[1] = in vivo sublingual administration to rats, active agent in plasma by HPLC; design: species or system Sprague Dawley rats; details: sublingual experimental formulation in rats; ng/mL in serum relative to ng/mL in serum from published studies (conventional control dose)
Procedure: Formulations comprising a variety of active agents were also tested in vivo. A […] volume/400 g animal formulation was administered sublingually to rats (Sprague Dawley rats, with jugular catheters were purchased from Charles River Laboratories). All rats were in the 275-300 g weight range.
All dose formulations were prepared on the day of dosing. Prior to dose administration, each rat was anesthetized with ketamine:xylazine (7:1, 60 mg/kg, IM) and positioned (supine) so that the head and shoulders were in alignment to preclude drainage of the dose into the trachea or esophagus. The mouth was opened and the interior (including under the tongue) was swabbed with dry cotton applicators. The tongue was held up and the dose was dispensed (same technician for all applications) into the sublingual pocket. The tongue was allowed to return to a normal position and the mouth was allowed to close.
Blood samples were drawn via catheter or cardiac puncture either 10 minutes following administration, or over a time range including 30 seconds, 1 minute, 5 minutes and 15 minutes following administration. The concentration (ng/mL) of the active agent in rat plasma was calculated using high powered liquid chromatography (HPLC). Efficiency was calculated as (ng/mL administered active agent in serum)/(ng/mL active agent in serum from published studies).

[2] = in vitro diffusion of formulation across membrane mounted on vial; assay type: in vitro ADME, pig or sheep; details: for Optimal pH Conditions with Experimental Formulation: pH found to produce rapid diffusion across the membrane, pH adjusted with sodium bicarbonate or citric acid
From the text: A flat section of either pig or sheep intestinal membrane is mounted across the open top of the vial. A screw top having a 7 mm hole (approximate) is then screwed to the vial, thereby securing the membrane to the vial. The vial is inverted and immersed in an isotonic solution (e.g., saline). Diffusion of the formulation is then allowed to proceed. The isotonic solution may be agitated with a magnetic stirrer. A pipette is used to sampling the saline solution at designated time intervals (e.g., 5, 10, 30, 60, 90, 180, and 600 seconds).
Other membranes may be used, including commonly available natural casing for food preparation, or cell culture human membranes (e.g. membranes from MatTek Corporation; Ashland, Mass.). […] Samples may contain vitamin B12 and arginine. The pH of the formulation may be adjusted as necessary.
The following compounds were analyzed in in vitro tests and the pH of the solutions were adjusted to the values noted below with either sodium bicarbonate (solid) or citric acid to produce the desired testing pH solutions.

| Molecule | Observed Plasma Levels [1] [%] | Optimal pH Conditions with Experimental Formulation [2] | also measured |
| --- | --- | --- | --- |
| CCCc1nn(C)c2c(=O)[nH]c(-c3cc(S(=O)(=O)N4CCN(C)CC4)ccc3OCC)nc12 [sildenafil citrate] | 169.00 | – | – |
| CNC[C@H](O)c1ccc(O)c(O)c1 [Epinephrine] | 0 to 600 | pH 5.0 to 7.0 | – |
| CC[C@H](C)[C@H](NC(=O)[C@H](CCC(=O)O)NC(=O)[C@H](CO)NC(=O)[C@@H](NC(=O)[C@@H](N)CO)C(C)C)C(=O)N[C@@H](CCC(N)=O)C(=O)N[C@@H](CC(C)C)C(=O)N[C@@H](CCSC)C(=O)N[C@@H](Cc1cnc[nH]1)C(=O)N[C@@H](CC(N)=O)C(=O)N[C@@H](CC(C)C)C(=O)NCC(=O)N[C@@H](CCCCN)C(=O)N[C@@H](Cc1cnc[nH]1)C(=O)N[C@@H](CC(C)C)C(=O)N[C@@H](CC(N)=O)C(=O)N[C@@H](CO)C(=O)N[C@@H](CCSC)C(=O)N[C@@H](CCC(=O)O)C(=O)N[C@@H](CCCN=C(N)N)C(=O)N[C@H](C(=O)N[C@@H](CCC(=O)O)C(=O)N[C@@H](Cc1c[nH]c2ccccc12)C(=O)N[C@@H](CC(C)C)C(=O)N[C@@H](CCCN=C(N)N)C(=O)N[C@@H](CCCCN)C(=O)N[C@@H](CCCCN)C(=O)N[C@@H](CC(C)C)C(=O)N[C@@H](CCC(N)=O)C(=O)N[C@@H](CC(=O)O)C(=O)N[C@H](C(=O)N[C@@H](Cc1cnc[nH]1)C(=O)N[C@@H](CC(N)=O)C(=O)N[C@@H](Cc1ccccc1)C(=O)O)C(C)C)C(C)C [Teriparatide (rDNA Origin), Teriparatide] | – | pH 6.8 | – |
| CCCc1nn(C)c2c(=O)[nH]c(-c3cc(S(=O)(=O)N4CCN(C)CC4)ccc3OCC)nc12 [Sildenafil] | – | pH 6.8 | – |
| CCCC[C@H](NC(C)=O)C(=O)N[C@H]1CC(=O)NCCCC[C@@H](C(=O)O)NC(=O)[C@H](Cc2c[nH]c3ccccc23)NC(=O)[C@H](CCCN=C(N)N)NC(=O)[C@@H](Cc2ccccc2)NC(=O)[C@H](Cc2cnc[nH]2)NC1=O [Bremelanotide] | 136.00 | pH 6.0 to 8.0 | – |
| Etanercept | – | pH 8 | rate of absorption ([2]; at lower pH values (than approximately 8.0)): dramatically reduced by at least a factor of five times; transport of the drug after elimination of each of the cofactors of the formulation ([2]; in most tests): slight to substantial decreases; pH at which transport occurred ([2]; in vitro membrane test of Example 3): 8 pH; rates of membrane transport ([2]; pH adjusted to approximately 8.0): substantially increased |
| Adalimumab | – | pH 7.7 | – |
| Enoxaparin Sodium | – | pH 8.0 to 6.0 | – |
| B1 | – | pH 7.4 | – |
